Results from paper PMC6298731, “Functional and structural similarity of human DNA primase [4Fe4S] cluster domain constructs”.

How the values were obtained:
[1] = target: T1, p58C272-464 (DNA primase regulatory subunit C-terminal domain) (human, UniProt P49643 272-464); assay: fluorescence anisotropy; 20 mM MES pH 6.5, 50 mM NaCl, 2 mM DTT (plus 0.05% Tween for FI), 50 nM substrate, 25 C; 15 min incubation at room temperature; settings: protein: recombinant; tags: 6xHis tag cleaved with H3C protease; label: 5'-6FAM on DNA template (S4 Dataset says FITC); 12 bp RNA-DNA hybrid; template 5' overhang 4 nt and 3' overhang 6 nt
T1 sequence: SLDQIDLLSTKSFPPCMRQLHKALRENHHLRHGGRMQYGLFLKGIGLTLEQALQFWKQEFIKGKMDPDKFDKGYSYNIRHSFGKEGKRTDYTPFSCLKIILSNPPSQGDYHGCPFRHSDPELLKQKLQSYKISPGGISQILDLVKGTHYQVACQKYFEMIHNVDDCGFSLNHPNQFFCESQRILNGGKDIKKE

[2] = target: T2, p58C266-464 (DNA primase regulatory subunit C-terminal domain) (human, UniProt P49643 266-464); assay: as above; settings: protein: recombinant; tags: 6xHis tag cleaved with H3C protease; label: 5'-6FAM on DNA template (S4 Dataset says FITC); 12 bp RNA-DNA hybrid; template 5' overhang 4 nt and 3' overhang 6 nt
T2 sequence: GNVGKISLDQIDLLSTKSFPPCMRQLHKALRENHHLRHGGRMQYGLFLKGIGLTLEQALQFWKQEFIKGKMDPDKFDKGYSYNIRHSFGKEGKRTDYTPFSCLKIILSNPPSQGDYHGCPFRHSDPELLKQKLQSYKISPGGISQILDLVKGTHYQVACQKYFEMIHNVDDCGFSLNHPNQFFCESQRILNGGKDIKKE

[3] = target: T1, p58C272-464 (DNA primase regulatory …); assay: fluorescence intensity (Monolith MST instrument); 20 mM MES pH 6.5, 50 mM NaCl, 2 mM DTT (plus 0.05% Tween for FI), 50 nM substrate, 25 C; 15 min incubation at room temperature; settings: protein: recombinant; tags: 6xHis tag cleaved with H3C protease; label: 5'-Cy5 on DNA template; 8 bp RNA-DNA hybrid; template 5' overhang 4 nt and 3' overhang 6 nt
[4] = target: T2, p58C266-464 (DNA primase regulatory …); assay: as above; settings: protein: recombinant; tags: 6xHis tag cleaved with H3C protease; label: 5'-Cy5 on DNA template; 8 bp RNA-DNA hybrid; template 5' overhang 4 nt and 3' overhang 6 nt

B1: FA substrate: 12 nt RNA-primed 22 nt DNA template (DNA:RNA)
RNA: GGACCUCCAGGA
DNA: AAACTCCTGGAGGTCCAACATA
modifications: 5'-triphosphate on RNA primer (RNA printed with T as S5; written here with U)
- Kd [1]: 3.6 ± 0.1 µM
- Kd [2]: 2.1 ± 0.1 µM

B2: MST/FI substrate: 8 nt RNA-primed 18 nt DNA template (DNA:RNA)
RNA: GGCUCGGA
DNA: AAACTCCGAGCCAACATA
modifications: 5'-triphosphate on RNA primer
- Kd [3]: 2.7 ± 0.3 µM
- Kd [4]: 3.4 ± 0.5 µM
